This note sets out measurements from US20180201670A1 (published 2018).

Test [1] deals with T1, analyte of Example 8 (not named).
T1 construct: Target of the Biacore run of Hu-6C1-H3bL2
The experiment in a line: Biacore (SPR); analyte not named. (In general: Surface plasmon resonance follows binding to a sensor surface in real time, without labels.)

In test [2] the target is T2, pH4-treated TTR (human, UniProt P02766 21-147). The experiment in a line: Sandwich ELISA (pH 4-TTR). Background: An ELISA detects its analyte on a solid surface through an enzyme-linked reagent.
In test [3] the target is T2, pH4-treated TTR. The experiment in a line: ELISA; pH4-TTR captured on anti-His-coated plate, mAb 0.31-2.5 µg/ml. On the procedure:
Four lead mis-TTR mAbs (9D5, 14G8, 6C1, and 5A1) were assayed by ELISA at concentrations ranging from 0.31 to 2.5 μg/ml using both pH4.0-treated TTR (pH4-TTR) and native TTR as the coating antigen. TTR antigen preparation and ELISA protocols are described elsewhere in Materials and Methods (e-g).
Coated and blocked 96-well plates were treated with 50 μl per well of 2.5 μg/ml TTR antigen (either native TTR or pH4-TTR) for 1 hr. at room temperature. The plates were then washed two times with 250 μl per well of wash buffer (1× Tris Buffered Saline containing 0.05% Tween-20). Washed plates were then treated with 50 μl per well of the appropriate anti-TTR monoclonal antibody at concentrations ranging from of 0.31 to 2.5 μg/ml, for 1 hr.
The treated plates were washed 3 times with 250 μl perwell wash buffer. After washing, the plates were treated for 1 hr. with 50 μl per well of detection antibody comprising a 1:5,000 dilution of […] goat-anti-mouse (Jackson ImmunoResearch #115-035-164) in 1×PBS. The plate was then washed 3 times prior to the addition of 100 μl per well TMB substrate (Rockland). The HRP reaction was allowed to proceed at room temperature for 15 min. before quenching with a 50 μl per well volume of 1N […]. Spectroscopic absorbance was measured at a wavelength of 450 nm.

A word on the Kd: it is the constant that tells how readily two partners part at equilibrium. As a reminder, the koff is the rate constant with which the complex falls apart. What is called kon is a measure of how fast the partners come together.

B1: Hu-6C1-H3bL2 (antibody, human IgG1, kappa, V domains shown)
VH: EVQLVESGGGLVQPGGSLKLSCAASGFTFSNYYMSWVRQAPGKRLEWVAYISIDGNNIYHPDSVKGRFTISRDNAKNTLYLQMNSLKAEDTAMYYCARDSDYGYFDVWGQGTLVTVSS
VL: DIVMTQTPLSLPVTPGEPASISCRSSQSIVHSNGNTYLEWYLQKPGQSPKLLIYKVSKRFSGVPDRFSGSGSGTDFTLKISRVEAEDVGVYYCFQGSHVPLTFGGGTKVEIKR
notes: also called Hu6C1VHv3b/VLv2; humanized 6C1 heavy chain version 3b / light chain version 2
In test [1], B1 yielded a Kd of 1.46 nM, a koff of 0.000545 s⁻¹ and a kon of 372000 M⁻¹ s⁻¹.

B2: 9D5 (antibody, V domains shown)
VH: EVKLVESGGGLVQPGGSLKLSCAASGFTFSSYTMSWVRQTPEKRLELVAEISNSGDTTYYPDTVKGRFTFSRDNAKNTLYLQMSSLKSEDTAMYYCARHYYYGGGYGGWFFDVWGTGTTVTVSS
VL: DIVMTQAAPSVPVTPGESVSISCRSSKSLLHSNGNTYLYWFLQRPGQSPQLLIYRVSNLASGVPDRFSGSGSGTAFTLRISRVEAEDVGVYYCMQHLEYPLTFGAGTKLELK
Consider B2, for which the Kd in test [2] came to 257 nM; in test [3], 282 nM.
